According to article PMC3553987 (Nucleic Acids Research, 2012):

B1: U-STAT1: unphosphorylated STAT1 (protein, UniProt P42224 2-750, looked up)
Signal transducer and …: SQWYELQQLDSKFLEQVHQLYDDSFPMEIRQYLAQWLEKQDWEHAANDVSFATIRFHDLLSQLDDQYSRFSLENNFLLQHNIRKSKRNLQDNFQEDPIQMSMIIYSCLKEERKILENAQRFNQAQSGNIQSTVMLDKQKELDSKVRNVKDKVMCIEHEIKSLEDLQDEYDFKCKTLQNREHETNGVAKSDQKQEQLLLKKMYLMLDNKRKEVVHKIIELLNVTELTQNALINDELVEWKRRQQSACIGGPPNACLDQLQNWFTIVAESLQQVRQQLKKLEELEQKYTYEHDPITKNKQVLWDRTFSLFQQLIQSSFVVERQPCMPTHPQRPLVLKTGVQFTVKLRLLVKLQELNYNLKVKVLFDKDVNERNTVKGFRKFNILGTHTKVMNMEESTNGSLAAEFRHLQLKEQKNAGTRTNEGPLIVTEELHSLSFETQLCQPGLVIDLETTSLPVVVISNVSQLPSGWASILWYNMLVAEPRNLSFFLTPPCARWAQLSEVLSWQFSSVTKRGLNVDQLNMLGEKLLGPNASPDGLIPWTRFCKENINDKNFPFWLWIESILELIKKHLLPLWNDGCIMGFISKERERALLKDQQPGTFLLRFSESSREGAITFTWVERSQNGGEPDFHAVEPYTKKELSAVTFPDIIRNYKVMAAENIPENPLKYLYPNIDKDHAFGKYYSRPKEAPEPMELDGPKGTGYIKTELISVSEVHPSRLQTTDNLLPMSPEEFDEVSRIVGSVEFDSMMNTV
modifications: unphosphorylated
B2: P-STAT1tc: Phosphorylated truncated STAT1 lacking N-terminal domain and short C-terminal activation domain (amino acids 132-712) (protein, UniProt P42224 132-712, looked up, fragment)
chain: STVMLDKQKELDSKVRNVKDKVMCIEHEIKSLEDLQDEYDFKCKTLQNREHETNGVAKSDQKQEQLLLKKMYLMLDNKRKEVVHKIIELLNVTELTQNALINDELVEWKRRQQSACIGGPPNACLDQLQNWFTIVAESLQQVRQQLKKLEELEQKYTYEHDPITKNKQVLWDRTFSLFQQLIQSSFVVERQPCMPTHPQRPLVLKTGVQFTVKLRLLVKLQELNYNLKVKVLFDKDVNERNTVKGFRKFNILGTHTKVMNMEESTNGSLAAEFRHLQLKEQKNAGTRTNEGPLIVTEELHSLSFETQLCQPGLVIDLETTSLPVVVISNVSQLPSGWASILWYNMLVAEPRNLSFFLTPPCARWAQLSEVLSWQFSSVTKRGLNVDQLNMLGEKLLGPNASPDGLIPWTRFCKENINDKNFPFWLWIESILELIKKHLLPLWNDGCIMGFISKERERALLKDQQPGTFLLRFSESSREGAITFTWVERSQNGGEPDFHAVEPYTKKELSAVTFPDIIRNYKVMAAENIPENPLKYLYPNIDKDHAFGKYYSRPKEAPEPMELDGPKGTGYIKTELISVSEV
modifications: phosphorylated

Legend:
[1] = test system: GAS consensus site DNA (TTCnnnGAA); test: TIRF-PBM binding of STAT1 proteins to DNA
GAS cognate DNA = test: EMSA with P32-labeled cognate DNA; assay type: binding; details: data not shown

Molecule	fold impact on affinity compared to P-STAT1 binding ([1]; optimal GAS site DNA) [fold]	fold decrease in binding affinity vs P-STAT1 (GAS cognate DNA) [fold]	average fold impact on binding compared to P-STAT1 at preferred binding sites ([1]; reduced binding) [fold]
B1	> 100	> 200	
B2			2.6
